According to PMC10522976:

Target: Cynomolgus MSLN (cynomolgus macaque)

Kd: > 100 nM
B1: VH 3C9 (human antibody heavy chain variable domain) (VHH)
VHH: DVQLVESGGGVVQPGRSLRLSCAASGFTFSSYAMHWVRQAPGKGLEWVSSISGNSLYKYYADSVKGRFTISRDDSTNTLYLQMNSLRAEDTATYYCTRHWAVGNWGQGTLVTVSS
